From US20100136009A1 (DIADEXUS, published 2010)
Residue numbers refer to the chain shown, from its start.

T1: Ovr110 (amino acids 1-282; Ovr110 Construct 1 without the 6-His tag) expressed on transiently transfected … (human, UniProt Q7Z7D3 25-282)
T1 construct: signal peptide not removed here
T1 sequence: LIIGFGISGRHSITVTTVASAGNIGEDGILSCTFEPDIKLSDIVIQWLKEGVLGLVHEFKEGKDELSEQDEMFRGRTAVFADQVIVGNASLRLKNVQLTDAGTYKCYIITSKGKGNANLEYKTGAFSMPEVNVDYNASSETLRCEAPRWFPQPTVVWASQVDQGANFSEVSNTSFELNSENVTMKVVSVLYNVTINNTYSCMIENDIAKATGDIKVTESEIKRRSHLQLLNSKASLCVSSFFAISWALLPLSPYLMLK

T2: recombinant Ovr110-hFc encoded by Ovr110 Construct 2 (human)
T2 construct: Captured on plates by goat anti-human IgG Fc; also called Ovr110-hFc (with TM)
T2 chain: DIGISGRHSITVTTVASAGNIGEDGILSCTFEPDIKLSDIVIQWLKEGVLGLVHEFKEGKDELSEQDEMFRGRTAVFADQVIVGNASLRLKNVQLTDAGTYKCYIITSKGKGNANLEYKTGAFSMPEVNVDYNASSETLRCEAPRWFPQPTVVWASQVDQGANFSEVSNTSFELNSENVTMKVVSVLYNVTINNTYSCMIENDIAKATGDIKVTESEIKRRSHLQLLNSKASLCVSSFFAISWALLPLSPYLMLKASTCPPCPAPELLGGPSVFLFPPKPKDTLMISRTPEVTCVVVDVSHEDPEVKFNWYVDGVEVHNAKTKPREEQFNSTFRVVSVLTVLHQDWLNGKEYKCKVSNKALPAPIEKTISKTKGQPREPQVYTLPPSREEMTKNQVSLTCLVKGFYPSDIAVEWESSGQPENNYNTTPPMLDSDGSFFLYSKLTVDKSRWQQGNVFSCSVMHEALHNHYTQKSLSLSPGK

T3: native Ovr110 protein on tumor cells (ZR-75-1, SKBR3, RL95.2, OVCAR3) (human, UniProt Q7Z7D3 25-282)
T3 construct: whole, on cells; Endogenous protein of Ovr110-positive tumor cell lines; also called B7-H4; B7x
T3 sequence (looked up): T1 sequence

B1: Ovr110.Q19 (antibody, IgG1, V domains shown)
VH: DVLLQESGPGLVKASQSLSLTCSVTGYSITSGYFWNWIRQFPGNKLEWMGYISYDGGNSYNPSLKNRISITRDTSKNQFFLRMKSVTAEDTATYYCARKALWLRFDYWGQGTTLTVSS
VL: EIVLTQSPAIMSVYLGEKVTMTCSASLSVSYMHWYQQKSSTSPKLWIYDTSKVASGVPGRFSGSGSGNSYSLTISSMEAEDVATYYCFQGSGYPFTFGSGTKLEIKR
notes: Mouse hybridoma MAb; also called Q19.6; Ovr110.Q19.6
B2: Ovr110.Q23 (antibody, IgG1, V domains shown)
VH: QVQLQQSGAELMKPGASVKISCKATGYTFSSYWIEWVKQRPGHGLEWIGEILPGSGITKYNEKFKTKATFTADTSSNTAYMQLSSLTSEDSAVYYCARYYFGSVNFYFDCWGQGTTLTVSS
VL: QAVVTQESALTTSPGETVTLTCRSSTGAVTTSNYANWVQEKPDHLFTGLIGGTDNRPPGVPARFSGSLIGDKAALTITGTQTEDEAIYFCALWYSNHWVFGGGTKLTVLG
notes: Mouse hybridoma MAb; also called Q23.6
B3: Ovr110.Q27 (antibody, IgG1, V domains shown)
VH: QVQPQQSGAELARPGASVKLSCKASGYTFTTYWMQWVKQRPGQGLEWIGAIYPGDGDTRYTQKFKGKATLTADKSSSTAYMQLSSLASEDSAVYYCAINWGYAMDYWGQGTSVTVSS
VL: DIVLTQSHKIMSTSVGDRVSITCKASQDVRTAVAWYQQKPGQSPKLLIKSASYRYTGVPDRFSGSGSGTDFTFTISSVQAEDLAVYYCQQHYSNPTFGGGTKLEIKR
notes: Mouse hybridoma MAb; also called Q27.4; Q27.2
B4: Ovr110.Q11 (antibody, V domains shown)
VH: B1 VH with L3Q, A14P, N36S, Y51F, G57T, M83L, K84N, A88K, A100L
VL: B1 VL with I2N, V13A, Y14S, L15P, L27S, V53L
notes: Mouse hybridoma MAb; also called Q11.12.3; Ovr110.Q11.12.3
B5: Ovr110.Q12 (antibody, IgG1, V domains shown)
VH: QVQLQQPGAELVKPGATVKLSCKTSGYTFTSYWMHWVKQRPGQGLEWIGEIDPSDSYTNYNQKFKGKATLTVDTSSTTAYMQLSSLTSEDSAVYYCAREYGNNDAMDYWGQGTSVTVSS
VL: QIVLTQSPAIMSASPGEKVTMTCSASSGISYMHWYQQKPGTTPKRWIYDASKLASGVPSRFSGSGSGTSYSLTISSMEAEDAATYYCHQRRSYPFTFGSGTKLEIKR
notes: Mouse hybridoma MAb; also called Q12.2; Ovr110.Q12.2

Target: T1, Ovr110 (amino acids 1-282; Ovr110 …)
Experiment: flow cytometry; hybridoma supernatant; Ovr110-transfected 293F cells
Experimental: 48 hours post-transfection, cells were washed once with 10 ml Ca⁺²/Mg⁺²free DPBS and then 7 ml of warm (37° C.) Cellstripper (Mediatech, Herndon, Va.) was added per 150 cm² flask. The cells were then incubated for 5 minutes at 37° C. with tapping of the flask to remove tightly attached cells. The cells were removed and pipetted several times to break aggregates, then immediately placed in DMEM/10% FBS/5 mM sodium butyrate. The cells were then centrifuged down for 5 minutes at 1300 rpm and resuspended in DMEM/10% FBS/5 mM sodium butyrate. The cells were incubated at 37° C. for a 30 min recovery period. Prior to staining, viability of the cells was measured using Guava Viacount (Guava Cytometers, Foster City, Calif.) and cultures with >90% viability were selected for staining with MAbs.
Cells from cultures selected for MAb staining were aliquoted at 0.5-1.0×10⁶ cells/well in 96-well v-bottom plates (VWR) and centrifuged for 2 minutes at 1500 rpm. Supernatants were aspirated and plates briefly shaken on a vortex mixer to resuspend the cells, then 200 uL of DPBS/3% FBS/0.01% Na Azide (FACS buffer) was added to each well. Centrifugation and aspiration was repeated, then 25 uL of sequential dilutions of hybridoma supernatant or purified MAb was added to the cells. Plates were stored on ice for 15 min., then washed and centrifuged as above, in 200 uL of FACS buffer. This washing procedure was repeated twice and then 25 uL of phycoerythrin (PE) conjugated donkey anti-mouse IgG Fc antibody (Jackson Immunoresearch Laboratories) were added to cells. After 15 minutes on ice the cells were washed twice, as above and then resuspended in 250 uL of FACS buffer for analysis on the cell sorter or flow cytometer.

| Molecule | % Cells Positive [%] | Mean Fluorescence Intensity (MFI) |
| --- | --- | --- |
| B1 | 95.7 | 24.5 |
| B2 | 94.7 | 17.9 |
| B3 | 91.8 | 6.09 |
| B4 | 95.7 | 26 |
| B5 | 96.6 | 31.8 |

Target: T2, recombinant Ovr110-hFc encoded by …
Experiment: competition ELISA; row = unlabeled blocking MAb; competitor = biotinylated detecting MAb Q3.1
Experimental: (§1) Recombinant Ovr110 was coated on plates as described in the Sandwich ELISA protocol above. Wells were filled with 50 uL unlabeled antibody (“blocking antibody”) at 20 ug/mL in TBST/BSA and incubated for 30 min. Fifty uL/well biotinylated antibody (“detecting antibody”) at 2 ug/mL was added and plates incubated for 15 min. […] After 30 min incubation, plates were washed with TBST and 100 uL/well of HRP substrate 3,3′,5,5′-tetramethyl benzidine (#S1599; Dako Cytomation, Carpinteria, Calif.) were added. The reaction was stopped by adding 100 uL 1N hydrochloric acid. The enzymatic reaction was quantified by measuring the solution's absorbance at 450 nm wavelength.
(§2) Each antibody was tested as both a blocking and detecting antibody, in all possible combinations.

| Molecule | signal/noise ratio |
| --- | --- |
| B1 | 1.3 |
| B2 | 1.4 |
| B3 | 1.4 |
| B4 | 1.3 |
| B5 | 1.4 |

Target: T2, recombinant Ovr110-hFc encoded by …
Experiment: competition ELISA; row = unlabeled blocking MAb; competitor = biotinylated detecting MAb Q23.6
Experimental: as §1, §2

| Molecule | signal/noise ratio |
| --- | --- |
| B1 | 4.8 |
| B2 | 1 |
| B3 | 1 |
| B4 | 4.5 |
| B5 | 3.6 |

Target: T2, recombinant Ovr110-hFc encoded by …
Experiment: competition ELISA; row = unlabeled blocking MAb; competitor = biotinylated detecting MAb C6.3
Experimental: as §1, §2

| Molecule | signal/noise ratio |
| --- | --- |
| B1 | 1.2 |
| B2 | 1.2 |
| B3 | 1.2 |
| B4 | 1.2 |
| B5 | 1.2 |

Target: T2, recombinant Ovr110-hFc encoded by …
Experiment: competition ELISA; row = unlabeled blocking MAb; competitor = biotinylated detecting MAb A87.1
Experimental: as §1, §2

| Molecule | signal/noise ratio |
| --- | --- |
| B1 | 6.6 |
| B2 | 6.7 |
| B3 | 6.7 |
| B4 | 6.4 |
| B5 | 6.7 |

Target: T1, Ovr110 (amino acids 1-282; Ovr110 …)
Experiment: flow cytometry; purified MAb; Ovr110-transfected 293F cells
Experimental: The cells were then incubated for 5 minutes at 37° C. with tapping of the flask to remove tightly attached cells. The cells were removed and pipetted several times to break aggregates, then immediately placed in DMEM/10% FBS/5 mM sodium butyrate. The cells were then centrifuged down for 5 minutes at 1300 rpm and resuspended in DMEM/10% FBS/5 mM sodium butyrate. The cells were incubated at 37° C. for a 30 min recovery period. Prior to staining, viability of the cells was measured using Guava Viacount (Guava Cytometers, Foster City, Calif.) and cultures with >90% viability were selected for staining with MAbs.
(§3) Cells from cultures selected for MAb staining were aliquoted at 0.5-1.0×10⁶ cells/well in 96-well v-bottom plates (VWR) and centrifuged for 2 minutes at 1500 rpm. Supernatants were aspirated and plates briefly shaken on a vortex mixer to resuspend the cells, then 200 uL of DPBS/3% FBS/0.01% Na Azide (FACS buffer) was added to each well. Centrifugation and aspiration was repeated, then 25 uL of sequential dilutions of hybridoma supernatant or purified MAb was added to the cells. Plates were stored on ice for 15 min., then washed and centrifuged as above, in 200 uL of FACS buffer. This washing procedure was repeated twice and then 25 uL of phycoerythrin (PE) conjugated donkey anti-mouse IgG Fc antibody (Jackson Immunoresearch Laboratories) were added to cells. After 15 minutes on ice the cells were washed twice, as above and then resuspended in 250 uL of FACS buffer for analysis on the cell sorter or flow cytometer. In certain cases, for storage overnight at 4° C. prior to analysis, 133 uL of FACS buffer and 67 uL of 1% paraformaldehyde/DPBS was added to each well, for fixation, then the volume was increased to 250 uL with DPBS. Stained cells were analyzed on an Elite fluorescent activated cell sorter (FACS) (Beckman-Coulter).

| Molecule | % Cells Positive [%] | MFI |
| --- | --- | --- |
| B1 | 91.9 | 5.25 |
| B2 | 92.6 | 4.98 |
| B3 | 95.2 | 5.48 |
| B4 | 93.8 | 5.47 |
| B5 | 94.3 | 5.25 |

Target: T2, recombinant Ovr110-hFc encoded by …
Experiment: competition ELISA; row = unlabeled blocking MAb; competitor = biotinylated detecting MAb Q15.2
Experimental: as §1, §2

| Molecule | signal/noise ratio |
| --- | --- |
| B1 | 11.7 |
| B2 | 2.9 |
| B3 | 11.8 |
| B4 | 11.7 |
| B5 | 11.6 |

Target: transferrin receptor (TfnR, CD71) on cells (UniProt P02786)
Experiment: cell-based or functional assay

Chain of transferrin receptor (TfnR, CD71) on cells (P02786 whole entry): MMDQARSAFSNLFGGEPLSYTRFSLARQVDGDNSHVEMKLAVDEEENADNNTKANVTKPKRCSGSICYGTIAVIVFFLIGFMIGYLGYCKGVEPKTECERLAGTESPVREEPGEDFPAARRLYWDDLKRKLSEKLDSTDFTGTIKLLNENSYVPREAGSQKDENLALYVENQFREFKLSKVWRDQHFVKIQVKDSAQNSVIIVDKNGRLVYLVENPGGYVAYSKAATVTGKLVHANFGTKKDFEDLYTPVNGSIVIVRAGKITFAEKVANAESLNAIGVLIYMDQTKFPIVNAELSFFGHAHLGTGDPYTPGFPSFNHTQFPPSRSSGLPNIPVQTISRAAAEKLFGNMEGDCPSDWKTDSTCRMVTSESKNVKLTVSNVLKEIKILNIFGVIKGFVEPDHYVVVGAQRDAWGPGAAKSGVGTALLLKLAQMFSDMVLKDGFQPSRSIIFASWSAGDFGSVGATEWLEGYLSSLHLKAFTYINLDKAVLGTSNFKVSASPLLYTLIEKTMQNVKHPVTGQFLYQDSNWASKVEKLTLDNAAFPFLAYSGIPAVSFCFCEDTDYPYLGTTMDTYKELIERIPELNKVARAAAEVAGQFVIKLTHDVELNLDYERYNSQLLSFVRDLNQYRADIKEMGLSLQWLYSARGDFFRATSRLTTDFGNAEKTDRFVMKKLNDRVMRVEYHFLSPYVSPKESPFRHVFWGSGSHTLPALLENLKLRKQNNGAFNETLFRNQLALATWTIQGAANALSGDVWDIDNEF

| Molecule | Percentage growth compared to wells with media alone; HCT116; MAb 2.0 ug/mL with 1.0 ug/mL mAb-ZAP [%] | Percentage growth compared to wells with media alone; SKBR3; MAb 0.4 ug/mL with 1.0 ug/mL mAb-ZAP [%] | Percentage growth compared to wells with media alone; SKBR3; MAb 2.0 ug/mL with 1.0 ug/mL mAb-ZAP [%] | Percentage growth compared to wells with media alone; ZR-75-1; MAb 0.4 ug/mL with 1.0 ug/mL mAb-ZAP [%] | Percentage growth compared to wells with media alone; ZR-75-1; MAb 2.0 ug/mL with 1.0 ug/mL mAb-ZAP [%] |
| --- | --- | --- | --- | --- | --- |
| anti-TfnR MAb 5E9 (ATCC) (antibody) | 24.9 | 18.4 | 44.6 | 35 | 49.3 |

Target: T2, recombinant Ovr110-hFc encoded by …
Experiment: competition ELISA; row = unlabeled blocking MAb; competitor = biotinylated detecting MAb Q19.6
Experimental: as §1, §2

| Molecule | signal/noise ratio |
| --- | --- |
| B1 | 1 |
| B2 | 6 |
| B3 | 6.5 |
| B4 | 1 |
| B5 | 1.1 |

Target: T2, recombinant Ovr110-hFc encoded by …
Experiment: competition ELISA; row = unlabeled blocking MAb; competitor = biotinylated detecting MAb Q27.4
Experimental: as §1, §2

| Molecule | signal/noise ratio |
| --- | --- |
| B1 | 4.7 |
| B2 | 2.2 |
| B3 | 1 |
| B4 | 4.7 |
| B5 | 4.3 |

Target: T3, native Ovr110 protein on tumor cells …
Experiment: flow cytometry; purified MAb; ZR-75-1 cells
Experimental: as §3

| Molecule | % Cells Positive [%] | MFI |
| --- | --- | --- |
| B1 | 95.6 | 4.11 |
| B2 | 92.7 | 3.25 |
| B3 | 93.3 | 2.92 |
| B4 | 96.4 | 4.68 |
| B5 | 94.1 | 3.76 |

Target: T3, native Ovr110 protein on tumor cells …
Experiment: cell-based or functional assay

| Molecule | Percentage growth compared to wells with media alone; ZR-75-1; MAb 0.4 ug/mL with 1.0 ug/mL mAb-ZAP [%] | Percentage growth compared to wells with media alone; ZR-75-1; MAb 2.0 ug/mL with 1.0 ug/mL mAb-ZAP [%] |
| --- | --- | --- |
| B1 | 28.1 | 46.5 |
| B2 | 37.5 | 45.5 |
| B3 | 60.6 | 69.5 |

Target: T3, native Ovr110 protein on tumor cells …
Experiment: cell-based or functional assay
Remark: another data set of the same source

| Molecule | Percentage growth compared to wells with media alone; SKBR3; MAb 0.4 ug/mL with 1.0 ug/mL mAb-ZAP [%] | Percentage growth compared to wells with media alone; SKBR3; MAb 2.0 ug/mL with 1.0 ug/mL mAb-ZAP [%] |
| --- | --- | --- |
| B1 | 49.8 | 25 |
| B2 | 68.9 | 73.6 |
| B3 | 68.9 | 73.6 |

Target: T3, native Ovr110 protein on tumor cells …
Experiment: flow cytometry titration of fluorescein-labeled MAb on ZR75-1 cells; one-site fit
Experimental: Labeled antibodies were incubated with 100,000 ZR75-1 cells in FACS buffer for 2 hours at room temperature. […] Cells were washed twice in FACS buffer to remove unbound antibody and the mean fluorescence intensity (MFI) of cells was analyzed by flow cytometry. MFI values generated by a negative control antibody were subtracted from MFI values generated by anti-Ovr110 antibodies at equivalent antibody concentrations. Binding curves (net MFI values plotted against the antibody concentration) were analyzed with the software Prism (GraphPad). The dissociation constant KD was calculated by nonlinear regression assuming a one-site binding model.

| Molecule | Kd [pM] |
| --- | --- |
| B1 | 530 |
| B2 | 5660 |
| B3 | 4760 |
| B4 | 740 |
| B5 | 640 |

Target: T2, recombinant Ovr110-hFc encoded by …
Experiment: competition ELISA; row = unlabeled blocking MAb; competitor = biotinylated detecting MAb Q12.2
Experimental: as §1, §2

| Molecule | signal/noise ratio |
| --- | --- |
| B1 | 1.1 |
| B2 | 2.8 |
| B3 | 3.1 |
| B4 | 1 |
| B5 | 1 |

Target: T3, native Ovr110 protein on tumor cells …
Experiment: flow cytometry; purified MAb; SKBR3 cells
Experimental: as §3

| Molecule | % Cells Positive [%] | MFI |
| --- | --- | --- |
| B1 | 95.2 | 4.64 |
| B2 | 93.9 | 3.85 |
| B3 | 94.8 | 3.9 |
| B4 | 98.4 | 5.95 |
| B5 | 95.3 | 4.86 |

Target: T3, native Ovr110 protein on tumor cells …
Experiment: flow cytometry; hybridoma supernatant; SKBR3 cells
Experimental: The following tumor cell lines were used: SKBR3, ZR-75-1 and HeLa.
as §3

| Molecule | % Cells Positive [%] | Mean Fluorescence Intensity (MFI) |
| --- | --- | --- |
| B1 | 98.9 | 10.4 |
| B2 | 97.1 | 4.35 |
| B3 | 87.7 | 1.48 |
| B4 | 98.7 | 9.71 |
| B5 | 98.8 | 12 |

Target: T2, recombinant Ovr110-hFc encoded by …
Experiment: competition ELISA; row = unlabeled blocking MAb; competitor = biotinylated detecting MAb Q11.12.3
Experimental: as §1, §2

| Molecule | signal/noise ratio |
| --- | --- |
| B1 | 1 |
| B2 | 5.2 |
| B3 | 5.5 |
| B4 | 1 |
| B5 | 1.2 |
